The values that follow come from US20230025129A1 (KYMAB, published 2023).

The target in experiment [1] is T1, mouse matriptase-2 ECD protein his tag (mouse, UniProt Q9DBI0 80-811).
T1 construct: aa 80-811 of Q9DBI0 with C-terminal linker and His tag; also called mouse MTP-2 ECD; moMTP-2
T1 sequence: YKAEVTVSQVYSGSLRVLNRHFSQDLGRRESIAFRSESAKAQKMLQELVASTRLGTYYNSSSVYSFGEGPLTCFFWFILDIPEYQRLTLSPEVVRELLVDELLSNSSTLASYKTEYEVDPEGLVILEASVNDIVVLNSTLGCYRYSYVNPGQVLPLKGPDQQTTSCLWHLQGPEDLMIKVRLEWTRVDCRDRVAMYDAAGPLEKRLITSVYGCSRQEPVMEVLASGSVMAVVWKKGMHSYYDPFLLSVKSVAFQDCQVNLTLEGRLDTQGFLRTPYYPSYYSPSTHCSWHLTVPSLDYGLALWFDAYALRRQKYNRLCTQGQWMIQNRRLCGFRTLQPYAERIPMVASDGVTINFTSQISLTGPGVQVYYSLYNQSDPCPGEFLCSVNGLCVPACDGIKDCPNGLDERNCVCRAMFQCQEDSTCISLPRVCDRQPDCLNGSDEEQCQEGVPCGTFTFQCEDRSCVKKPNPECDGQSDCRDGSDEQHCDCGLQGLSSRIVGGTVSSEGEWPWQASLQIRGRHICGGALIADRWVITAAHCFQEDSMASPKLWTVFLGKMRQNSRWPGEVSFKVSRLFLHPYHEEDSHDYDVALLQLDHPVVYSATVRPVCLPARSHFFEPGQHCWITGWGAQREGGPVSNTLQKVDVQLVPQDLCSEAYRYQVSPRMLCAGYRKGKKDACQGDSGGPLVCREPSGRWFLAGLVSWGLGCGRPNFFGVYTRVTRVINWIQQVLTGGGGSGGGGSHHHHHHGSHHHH
Put plainly: SPR, his-tagged MTP-2 ECD protein (Table W); true KD could not be measured accurately, very slow off-rate. As to the method:
(§1) Off-rate screening was performed by surface plasmon resonance (SPR), using a Biacore 8K system (GE Healthcare). Anti-human Fc mix (˜1000 RU) were immobilised in both active and reference channels in HBS-P+ buffer (GE BR100671) pH 7.4. Anti-MTP-2 hulgG4PE antibodies were then captured for 60 sec at 10 μl/min at 1 μg/ml concentration (approximatively 35 and 50 RU were captured) only on the active channel. MTP-2 ECD protein analytes were then injected (at 100, 25, 6.25, 1.56 and 0 nM concentrations) for 120 sec (association time) at 30 μl/min and dissociation monitored for 600 sec. Multiple cycle kinetics mode was used with all 8 channels being used. Reference and background were subtracted from the sensorgrams for each antibody and data was fitted using a 1:1 interaction model in the Biacore evaluation software. Rmax, ka, kd globally fitted, RI=0.
(§2) NORI-011, NORI-008, NORI-003 and NORI-006 were all found to have cross-reactive binding to human, mouse, cyno and rat MTP-2 ECD proteins. […] The true KD value for NORI-008 could not be measured accurately for human or mouse MTP-2 due to a very slow off-rate.
(SPR reads the build-up and loss of mass on a sensor chip optically.)

Experiment [2] concerns the target T2, human matriptase-2 ECD protein his tag (human, UniProt Q8IU80 78-811).
T2 construct: also called human MTP-2 ECD; huMTP-2
T2 sequence: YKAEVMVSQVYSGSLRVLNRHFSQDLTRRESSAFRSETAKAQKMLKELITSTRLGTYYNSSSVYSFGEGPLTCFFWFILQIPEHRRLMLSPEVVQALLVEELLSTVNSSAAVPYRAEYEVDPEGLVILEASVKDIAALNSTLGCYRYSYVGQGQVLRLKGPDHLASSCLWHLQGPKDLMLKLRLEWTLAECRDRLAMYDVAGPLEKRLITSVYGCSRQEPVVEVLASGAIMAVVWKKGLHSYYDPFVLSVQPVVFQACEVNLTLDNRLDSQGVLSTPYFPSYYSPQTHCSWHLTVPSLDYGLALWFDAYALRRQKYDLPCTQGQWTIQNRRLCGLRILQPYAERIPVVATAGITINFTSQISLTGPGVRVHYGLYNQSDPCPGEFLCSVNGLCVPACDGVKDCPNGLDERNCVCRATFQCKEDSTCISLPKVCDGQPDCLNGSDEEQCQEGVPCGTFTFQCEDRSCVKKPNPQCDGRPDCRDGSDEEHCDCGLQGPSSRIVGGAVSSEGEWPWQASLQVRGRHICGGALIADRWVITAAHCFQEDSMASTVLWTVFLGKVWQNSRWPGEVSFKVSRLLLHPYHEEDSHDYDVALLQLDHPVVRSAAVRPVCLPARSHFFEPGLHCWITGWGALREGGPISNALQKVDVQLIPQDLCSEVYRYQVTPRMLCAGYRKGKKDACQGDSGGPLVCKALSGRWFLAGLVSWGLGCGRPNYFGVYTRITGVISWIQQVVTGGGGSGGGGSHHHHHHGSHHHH
The description is as above. As to the method: as §1, §2

B1: NORI-008 (antibody, human IgG4 S228P, kappa, V domains shown)
VH: QVQLQESGPGLVKPSETLSLTCSVSGGSVSSGRYYWTWIRQPPGKGLEWIGYISNSGNTNYNPSLKSRVTISLDTSKKQFSLSLSAVTAADTAVYYCARGFIYDYWFDPWGQGSLVTVSS
VL: DSQMTQSPSSLSASVGDRVTITCQASQDIDNYLNWYQQRPGKAPKLLIYDASKLETGVPSRFSGSGSGTDFTFTISSLQPEDFATYYCQQYGNLPITFGQGTRLDIKR
notes: human IgG4PE, kappa, in the in vitro assays; a mouse IgG1 format was used in one in vivo study only; also called NORI-008 hulgG4PE; NORI-008 IgG
What is called Kd is the equilibrium constant for the complex coming apart. A low value points to a tighter complex. Turning to B1, the results for the Kd in experiment [1] and in experiment [2] were 0.206 pM and 0.0169 pM, respectively.
